Measurements reported in paper PMC9436803.

Assays:
[1] = target: Human IgG1 Fc (residues 216–447) (human); assay: SPR; Biacore T200; IgG1 Fc amine-coupled to a CM5 chip (1 μg/ml); CD16a 0.01-20.48 μM flowed at 10 μl/min; 20 mM MOPS, 100 mM sodium chloride, 1 μM bovine serum albumin, 0.05% P20, pH 7.4; dissociation constants from equilibrium responses; at least five measurements
[2] = target: Human IgG1 Fc (residues 216–447) (human); assay: SPR; Biacore T200; IgG1 Fc amine-coupled to a CM5 chip (0.33 μg/ml); CD16a 0.04-5.12 μM flowed at 60 μl/min, contact 30 s, dissociation 250 s; 20 mM MOPS, 100 mM sodium chloride, 0.05% P20, pH 7.4, no bovine serum albumin; two-state kinetic model

Kd [1] [nM]	Kd [2] [nM]	ka1 (two-state model, major event) [2] [M⁻¹ s⁻¹]	ka2 (two-state model, minor event) [2] [s⁻¹]	kd1 (two-state model, major event) [2] [s⁻¹]	kd2 (two-state model, minor event) [2] [s⁻¹]	Substance
1470	–	–	–	–	–	CD16a F158 S164A, lacking the N162 glycan (receptor)
230	109	1.4e+06	0.0014	0.18	0.0078	CD16a V158 S164A with complex-type N-glycans, lacking the N162 glycan (receptor)
1070	–	–	–	–	–	Fc γ receptor IIIa/CD16a F158 allotype with oligomannose (Man5GlcNAc2) N-glycans (from UniProt P08637 17-254)
126	52	1.1e+06	0.0018	0.079	0.005	Fc γ receptor IIIa/CD16a F158 allotype with truncated (1)GlcNAc N-glycans (from UniProt P08637 17-254)
270	76	170000	0.0061	0.025	0.0066	Fc γ receptor IIIa/CD16a V158 allotype with complex-type N-glycans
86	55	710000	0.0049	0.071	0.006	Fc γ receptor IIIa/CD16a V158 allotype with oligomannose (Man5GlcNAc2) N-glycans
22	9.2	2.5e+06	0.0032	0.04	0.0047	Fc γ receptor IIIa/CD16a V158 allotype with truncated (1)GlcNAc N-glycans
